Reference: US20230330253A1 (LANOVA MEDICINES, published 2023)
Where a chain is given by its changes, count along the chain named. In names and notes the source's numbering stands.

B1: 175D10 (IMAB362; claudiximab) (antibody, V domains shown)
VH: QVQLQQPGAELVRPGASVKLSCKASGYTFTSYWINWVKQRPGQGLEWIGNIYPSDSYTNYNQKFKDKATLTVDKSSSTAYMQLSSPTSEDSAVYYCTRSWRGNSFDYWGQGTTLTVSS
VL: DIVMTQSPSSLTVTAGEKVTMSCKSSQSLLNSGNQKNYLTWYQQKPGQPPKLLIYWASTRESGVPDRFTGSGSGTDFTLTISSVQAEDLAVYYCQNDYSYPFTFGSGTKLEIK
B2: 4F11E2 HC N55E-LC S32A (BG2001-C) (humanized, PTM de-risked, No. 3) (antibody, V domains shown)
VH: EVQLVESGGGLVQPGGSLRLSCAASGFTFSTFGMHWVRQAPGKGLEWVSYITSGESPIYFTDTVKGRFTISRDNAKNSLYLQMNSLRAEDTAVYYCARSSYYGNSMDYWGQGTLVTVSS
VL: DIVMTQSPDSLAVSLGERATINCRSSQSLLNAGNRKNYLTWYQQKPGQPPKLLIYWASTRESGVPDRFSGSGSGTDFTLTISSLQAEDVAVYYCQNAYSYPFTFGGGTKLEIK
B3: 120B7B2 HC G57D&S104A-LC S32A&G97A (BG2001-E) (humanized, PTM de-risked, No. 7) (antibody, V domains shown)
VH: QVQLVQSGAEVKKPGASVKVSCKASGYTFTGYIIQWVRQAPGQRLEWMGFINPYNDDTKYNEQFKGRVTITRDTSASTAYMELSSLRSEDTAVYYCARAYFGNAFAYWGQGTLVTVSS
VL: B2 VL with R24K, R35Q, S99Y, Y100F
B4: 72C1B6A3 HC WT-LC S32A (BG2001-D) (humanized, PTM de-risked, No. 5) (antibody, V domains shown)
VH: QVQLVQSGAEVKKPGASVKVSCKASGYTFTTYPIEWVRQAPGQRLEWMGNFHPYNDDTKYNEKFKGRVTITRDTSASTAYMELSSLRSEDTAVYYCARRAYGYPYAMDYWGQGTLVTVSS
VL: B2 VL with R24K, R35Q, W56R, T59S, A97D, S99I, F102Y

Target: human claudin 18.2 (CLDN18.2) (human)
Assay: cell-based or functional assay

Binder | EC50, ADCC Reporter Bioassay (luciferase, Jurkat FcγRIIIa V158/NFAT effector cells)
B1 | 0.459 nM

Target: human claudin 18.2 (CLDN18.2) (human)
Assay: cell-based or functional assay
Remark: another data set of the same source

Binder | EC50, ADCC Reporter Bioassay (luciferase)
B1 | 0.158 nM
B2 | 0.148 nM
B3 | 0.114 nM
B4 | 0.191 nM

Target: human claudin 18.2 (CLDN18.2) (human)
Assay: cell-based or functional assay
Remark: another data set of the same source

Binder | Fluorescence, pHAb internalization on MKN45-CLDN18.2 cells, 20 nM antibody, normalized by DAR | Fluorescence, pHAb internalization on MKN45-CLDN18.2 cells, 100 nM antibody, normalized by DAR
B1 | 7950 | 18900
B2 | 19000 | 28200
B3 | 19200 | 31300
B4 | 26200 | 36500
